Source: patent US20140335107A1 (published 2014)
Where a chain is given by its changes, count along the chain named. Where no end group is shown, it is not given here.

What was measured:
[1] = biological target: T1, extracellular domain of human CD79b fused to Fc (huCD79becd-Fc) (human, UniProt P40259 29-159); experiment: Biacore (SPR), Fab against IgG on immobilized huCD79becd-Fc
T1 construct: expressed in CHO cells; also called huCD79b-Fc; not shown: Fc part of the fusion is not described
T1 sequence: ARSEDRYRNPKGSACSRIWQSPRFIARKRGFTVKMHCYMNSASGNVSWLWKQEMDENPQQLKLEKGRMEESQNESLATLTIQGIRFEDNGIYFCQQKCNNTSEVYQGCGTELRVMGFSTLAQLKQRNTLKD
Method: (§1) Binding of Fab and IgG variants of MA79b, the MA79b-grafted “humanized” antibody or MA79b-grafted “humanized” antibody variants to immobilized huCD79becd or huCD79b-Fc or the 16 amino acid peptide containing the epitope for MA79b was measured by surface plasma resonance. Affinity determinations were performed by surface plasmon resonance using a BIAcore™-2000. The antigen, huCD79becd or huCD79b-Fc was immobilized (approximately 50-200 RU) in 10 mM sodium acetate pH 4.8 on a CM5 sensor chip. Due to a large avidity effect, affinity measurements were sensitive to the amount of huCD79becd immobilized. For this reason, affinities, determined for samples run on different days, were normalized to MA79b that was run along side as a standard. In experiments that measured binding to the 16 amino acid peptide containing the epitope for MA79b ([…]) (SEQ ID NO: 16), the biotinylated peptide was captured (approximately 20 RU) on a streptavidin coated sensor chip. Purified MA79b-grafted “humanized” antibody variant (as Fab or IgG) (a 2-fold serial dilution of 0.5 to 1000 nM in PBST) was injected at a flow rate of 30 μL/min. Each sample was analyzed with 4-minute association and 10-minute disassociation. After each injection the chip was regenerated using 10 mM Glycine pH 1.7. […]

human CD79b [2] = biological target: T2, human CD79b (human, UniProt P40259 29-229); experiment: Scatchard analysis, 125I-labeled IgG competed with unlabeled IgG on BJAB cells stably expressing cynomolgus CD79b and endogenous human CD79b
T2 construct: endogenous CD79b on B-cell lines (BJAB, BJAB-luciferase, DoHH-2); also called PRO36249; CD79b expressed on the surface of BJAB-luciferase cells
T2 sequence: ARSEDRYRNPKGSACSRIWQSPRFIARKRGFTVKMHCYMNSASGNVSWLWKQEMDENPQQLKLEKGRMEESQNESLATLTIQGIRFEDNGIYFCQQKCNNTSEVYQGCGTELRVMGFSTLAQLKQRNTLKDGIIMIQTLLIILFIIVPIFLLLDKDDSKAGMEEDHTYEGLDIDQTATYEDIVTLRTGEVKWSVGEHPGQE
Method: To further determine binding of the IgG variants having changes in HVR-L2 and HVR-H3 (huMA79b L2/H3), binding of iodinated IgG variants to BJAB cells expressing human CD79b and cynomologous CD79b was analyzed and Scatchard analysis was performed.
For Scatchard analysis, 0.5 nM I¹²⁵ labeled MA79b or huMA79b L2/H3 was competed against unlabeled MA79b or huMA79b L2/H3, respectively, ranging from 50 to 0.02 nM (12 step 1:2 serial dilution) in the presence of a transfected BJAB line stably expressing cynomologous-CD79b and endogenous human-CD79b. After a four hour incubation at 4° C., cells were washed and cell pellet counts were read by a gamma counter (1470 WIZARD Automatic Gamma Counter; Perkin Elmer, Walthem, Mass.). All points were done in triplicate and counted for 10 minutes. The average CPM was used for Kd calculation using the New Ligand (Genentech, South San Francisco, Calif.) program.

human CD79b [3] = biological target: T2, human CD79b; experiment: FACS on DoHH-2 cells, Fab (data not shown)
Method: To further determine binding of the Fab variants of MA79b-grafted “humanized” antibody or antibody variants, binding of Fab and/or IgG variants to DoHH-2 cells were analyzed using FACS analysis. Further, binding of MA79b-grafted “humanized” antibody variants to BJAB-luciferase cells was analyzed using FACS analysis.
For FACS analysis of Fab variants of MA79b-grafted “humanized” antibody variants (MA79b-grafted “humanized” antibody (IgG version used as a control)), DoHH-2 cells (1×10⁶ in 100 μl volume) were first incubated with or without 1 μg of original mouse anti-CD79b monoclonal antibody (MA79b) for 30 minutes, before adding 1 μg of individual Fab variant (or control antibody).

[4] = biological target: T3, extracellular domain of human CD79b (huCD79becd) (human, UniProt P40259 29-159); experiment: phage selection, Fab on phage
T3 construct: expressed in CHO cells
T3 sequence: T1 sequence
Method: For phage selection, the extracellular domain of CD79b (huCD79becd) (2 μg/ml) was immobilized in PBS on MaxiSorp microtiter plates (Nunc) overnight at 4° C. Plates were blocked for at least 1 h using Casein Blocker (Pierce). Phage were harvested from the culture supernatant and suspended in PBS containing 0.5% BSA and 0.05% Tween 20 (PBSBT). Following addition of the phage library and phage selection for 2 h, microtiter wells were washed extensively with PBS containing 0.05% Tween 20 (PBST) to remove unbound phage and bound phage were eluted by incubating the wells with 100 mM HCl for 30 min. Selection stringency may be increased during successive rounds of selection by increasing the number of washes with PBST or by incubating with soluble huCD79becd for increasing time periods prior to elution.

[5] = biological target: T3, extracellular domain of human CD79b …; experiment: Biacore (SPR), IgG
Method: as §1

[6] = biological target: T3, extracellular domain of human CD79b …; experiment: FACS analysis, IgG (data not shown)
[7] = biological target: T1, extracellular domain of human CD79b …; experiment: Biacore (SPR), Fab
Method: as §1

[8] = biological target: T3, extracellular domain of human CD79b …; experiment: Biacore (SPR), IgG (FIG. 12)
Method: as §1

[9] = biological target: T4, 16 amino acid peptide containing the epitope for MA79b (ARSEDRYRNPKGSACK) (human, also: biotinylated (site not given here)); experiment: Biacore (SPR), biotinylated peptide captured on streptavidin chip
T4 construct: synthesized; captured on a streptavidin coated sensor chip; also called biotinylated peptide
T4 peptide: ARSEDRYRNPKGSACK
Method: as §1

B1: murine anti-CD79b monoclonal antibody MA79b (antibody, V domains shown)
VL: DIVLTQSPASLAVSLGQRATISCKASQSVDYDGDSFLNWYQQKPGQPPKLFIYAASNLESGIPARFSGSGSGTDFTLNIHPVEEEDAATYYCQQSNEDPLTFGAGTELELKR
VH: EVQLQQSGAELMKPGASVKISCKATGYTFSSYWIEWVKQRPGHGLEWIGEILPGGGDTNYNEIFKGKATFTADTSSNTAYMQLSSLTSEDSAVYYCTRRVPVYFDYWGQGTSVTVSS
notes: murine monoclonal IgG; 125I-labeled in the Scatchard assay; also called murine CD79b antibody
With B1 the “fold avidity component (dimeric IgG binding against monomeric Fab binding)” value [1] was 100 fold and the Kd (human CD79b [2]) was 0.63 nM.

B2: huMA79b graft variant with HVR-H3 of SEQ ID NO: 94 (huMA79b H3-10), Fab (Fab, name in Kabat numbering, V domains shown)
VH: EVQLVESGGGLVQPGGSLRLSCAASGYTFSSYWIEWVRQAPGKGLEWVGEILPGGGDTNYNEIFKGRFTISADTSKNTAYLQMNSLRAEDTAVYYCTRRVPIRLDYWGQGTLVTVSS
VL: DIQMTQSPSSLSASVGDRVTITCKASQSVDYDGDSFLNWYQQKPGKAPKLLIYAASNLESGVPSRFSGSGSGTDFTLTISSLQPEDFATYYCQQSNEDPLTFGQGTKVEIKR
notes: selected as Fab on phage; also made as soluble Fab for FACS; also called H3-10 mutation
B2: binds (human CD79b [3]); binds [4].

B3: MA79b-grafted humanized antibody (huMA79b graft), IgG (antibody, V domains shown)
VH: B2 VH with I102V, R103Y, L104F
VL: B2 VL
notes: expressed as an IgG
In the case of B3, the “fold loss of binding affinity” value [5] is reported as greater than 50 fold and the “fold reduction of binding affinity” value [6] is reported as greater than 100 fold.

B4: huMA79b graft variant with HVR-L2 of SEQ ID NO: 22 (huMA79b L2-2), Fab (Fab, name in Kabat numbering, V domains shown)
VH: B2 VH with I102V, R103Y, L104F
VL: B2 VL with S56R, N57K, E59G, S60R
notes: selected as Fab on phage; also made as soluble Fab for FACS and Biacore; also called L2-2 mutation
In the case of B4, the “fold improvement in monomeric binding compared to MA79b (Fab)” value [7] is reported as 5 fold.

B5: MA79b-grafted humanized antibody variant 17 (huMA79b.v17) (antibody, human IgG1, kappa, V domains shown)
VH: B2 VH with V48I, F68A, I70F, I102V, R103Y, L104F
VL: B2 VL with M4L
notes: IgG
B5: binds [8].

B6: MA79b-grafted humanized antibody variant L2/H3 (huMA79b L2/H3), IgG (antibody, name in Kabat numbering, V domains shown)
VH: B2 VH
VL: B2 VL with S56R, N57K, E59G, S60R
notes: L2-2 and H3-10 mutations combined on the huMA79b graft; 125I-labeled in the Scatchard assay
With B6 the binding result [9] was “binds” and the Kd (human CD79b [2]) was 0.52 nM.
